The values below come from patent US12422438B2, “Means and methods for single molecule peptide sequencing” (VIB VZW, priority 2017, dated 2025).

The target in series [1] is T1, T. aquaticus aminopeptidase T (Thermus aquaticus, UniProt P23341).
T1 construct: 6xHis (C); made in house; host or cells: E. coli BL21(DE3), pET24b(+)
T1 sequence (P23341 with tags, fused parts or gaps): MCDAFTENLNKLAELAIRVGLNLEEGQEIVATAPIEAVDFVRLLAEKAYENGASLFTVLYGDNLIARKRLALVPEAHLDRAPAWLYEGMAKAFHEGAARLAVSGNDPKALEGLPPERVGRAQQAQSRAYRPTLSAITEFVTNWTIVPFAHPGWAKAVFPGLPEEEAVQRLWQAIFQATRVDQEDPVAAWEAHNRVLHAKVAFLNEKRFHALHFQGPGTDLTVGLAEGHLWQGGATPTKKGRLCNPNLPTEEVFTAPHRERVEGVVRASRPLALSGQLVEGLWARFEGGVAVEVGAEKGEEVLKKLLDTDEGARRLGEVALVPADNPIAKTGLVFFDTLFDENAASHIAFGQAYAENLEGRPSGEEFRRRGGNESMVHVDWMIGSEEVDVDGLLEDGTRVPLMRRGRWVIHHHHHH
Kind of series: Aminopeptidase assay with different amino acid p-nitroanilide substrates at 40° C. and 80° C. Type of series: biochemical. The note with it: FIG. 11. The protocol: FIG. 11. Aminopeptidase assay with different amino acid p-nitroanilide substrates. Enzyme and substrate (1.5 mM) were incubated for 2 h at 40° C. or 80° C. in PBS, after which the released p-nitroanilide was quantified by measuring the absorbance at 405 nm.
As described herein and in line with the invention described in current application, the activity differs between different amino acids. At 80° C., the panel of amino acid substrates can be roughly divided in fast-cleaved (L, M, Y, R, F) and slow-cleaved (D, P) substrates. However, at 40° C. it seems like the panel is divided in fast-cleaved (Y, R) and slow-cleaved (D, P), and substrates that lie in between (L, M, F). […] Finally, TagAPT is not only active in the p-nitroanilide assay. […] The N-terminal amino acid from peptides with proline at the second position is not easily cleaved since peptide bonds adjacent to the amino acid proline are resistant to cleavage by most peptidases (Iyver et al. 2015 FEBS Open Bio. 2015 Apr. 2; 5:292-302). In contrast to what Is stated in Minagawa et al (1988 Agricultural and Biological Chemistry 52:1755-1763) we show here that T. aquaticus aminopeptidase T can cleave N-terminal amino acids even when proline is at the second position. This surprising finding greatly enhances the generic use of Tag-APT in the method and uses disclosed in current application and in single molecule peptide sequencing in general.

Series [2] is described as follows: Organic solvent tolerance of aminopeptidase T, activity with L-leucine-p-nitroanilide substrate. Type of series: biochemical. The protocol:
(§1) FIG. 12. Organic solvent tolerance of aminopeptidase T from T. aquaticus. A. The activity of aminopeptidase T was measured with L-leucine-p-nitroanilide substrate. Enzyme and substrate were incubated for 3 h at 40° C. in 50 mM TrisHCl (pH 8) containing different concentrations of the organic solvents acetonitrile (ACN), methanol (MeOH) and ethanol (EtOH). B. Circular dichroism analysis of aminopeptidase T secondary structure in 0% versus 50% MeOH (in 10 mM dipotassium phosphate buffer (K2HPO4)). C. Enzyme activity in varying concentrations of MeOH in buffer (50 mM TrisHCl, pH 8) versus deionized water (MilliQ).
(§2) It is well-known in the art that this can be achieved by solvents (such as methanol) or high temperatures. When these harsh conditions are needed, the aminopeptidases used should tolerate solvents and/or high temperatures. […] At higher organic solvent concentrations, activity can still be detected, albeit lower. […] Furthermore, the enzyme appears to be fully active in deionized (MS grade) water, which might be advantageous when the enzyme will be used with ultra-sensitive chip technology (e.g. electrical biosensor such as field effect transistors) (FIG. 12C).

Series [3] is described as follows: Circular dichroism analysis of aminopeptidase T secondary structure. Type of series: physicochemical. The note with it: 0% methanol versus 50% methanol, 10 mM K2HPO4. The protocol: as §1, §2
For orientation: Circular dichroism is the unequal absorption of left and right circularly polarised light.

The nature of series [4]: Peptidase assay with L-leucine-p-nitroaniline of purified enzyme. Format: biochemical. As to conditions: 70° C., PBS buffer. The protocol: A peptidase assay with L-leucine-p-nitroaniline (140 μl PBS buffer, 30 μl 24 mM L-leucine-p-nitroaniline in MeOH and 10 μl purified Tag-APT) confirmed the presence of the active (amino) peptidase, with thermophilic properties (activity at Taq optimum of 70° C.) (FIG. 8).

Series [5] is described as follows: L-leucine-p-nitroanilide activity check after labeling with maleimide-DyLight650. Type of series: biochemical. As to conditions: N-terminal cysteine labeled with DyLight650. The text has this: FIG. 13. Site-specific fluorescent labeling of aminopeptidase T. A. SDS-PAGE analysis of aminopeptidase T after labeling the N-terminal cysteine with an equimolar and a 1×, 10×, 100× and 1000× molar excess of maleimide-DyLight650. Aminopeptidase T was visualized with fluorescence (DyLight650 label) and coomassie (total protein). B. Aminopeptidase T activity check with L-leucine-p-nitroanilide after labeling with maleimide-DyLight650.
Recombinant Taq aminopeptidase containing an extra N-terminal cysteine, was incubated overnight with the fluorescent maleimide-DyLight650 probe in the presence of the reducing agent TCEP (10 mM). Maleimide-DyLight650 was added in equimolar concentration, and in 10×, 100× and 1000× excess molar concentration. After separating the aminopeptidase with SDS-PAGE, it was visualized using a Coomassie stain, as well as with fluorescence to evaluate protein labeling with DyLight650.

B1: aminopeptidase T from T. aquaticus: aminopeptidase T from Thermus aquaticus, Cys added at the N-terminus and 6×His at the C-terminus, SEQ ID No. 8 (protein)
chain: T1 sequence (P23341 with tags, fused parts or gaps)
modifications: labeled TaqAPT
Turning to B1, in series [1], the “cleavage of dipeptides with a proline at the second position” value was “cleaves dipeptides even with a proline at the second position”. Also, the “acetonitrile concentration up until which enzyme remains completely active” value in series [2] (acetonitrile, 3 h at 40° C., 50 mM TrisHCl (pH 8)) was no more than 33%. Further, the “enzyme activity in deionized (MS grade) water” value in series [2] (deionized water (MilliQ) versus buffer) is reported as “fully active”. The “ethanol concentration up until which enzyme remains completely active” value in series [2] (ethanol, 3 h at 40° C., 50 mM TrisHCl (pH 8)) is listed as no more than 33%. The “methanol concentration up until which enzyme remains completely active” value in series [2] (methanol, 3 h at 40° C., 50 mM TrisHCl (pH 8)) is no more than 50%. The “structural differences by circular dichroism (CD)” value in series [3] is listed as “no structural differences were observed”. In series [4], the “peptidase activity with L-leucine-p-nitroaniline” value was “active”. Further, in series [5], the “function after labeling with maleimide-DyLight650” value is “does not jeopardize its function”.
